Columns and labels:
[1] = biological target: SNP-treated (S-nitrosylated) pea chloroplast 2-Cys Prx (Pisum sativum (pea)); experiment: SEC; Superdex-200 HR 10/30, 50 mM Tris-HCl pH 7.5, 150 mM NaCl; DTT-reduced protein incubated with 750 uM SNP, excess removed
[2] = biological target: chloroplast 2-Cys Prx from pea (Pisum sativum), recombinant, not glutathionylated (Pisum sativum (pea)); experiment: SEC; Superdex-200 HR 10/30, room temperature, 50 mM Tris-HCl pH 7.5, 150 mM NaCl; protein (50 uM) reduced with 10 mM DTT for 30 min, excess DTT removed
[3] = biological target: chloroplast 2-Cys Prx from pea (Pisum sativum), recombinant, not glutathionylated (Pisum sativum (pea)); experiment: SEC; Superdex-200 HR 10/30, room temperature, 50 mM Tris-HCl pH 7.5, 150 mM NaCl, 0.5 mL/min; untreated (native) protein
[4] = biological target: glutathionylated pea mitochondrial Prx IIF (Cys59-SG, Cys84-SG) (Pisum sativum (pea)); experiment: SEC; Superdex-200 HR 10/30, 50 mM Tris-HCl pH 7.5, 150 mM NaCl; DTT-reduced protein incubated with 5 mM GSNO at room temperature (different incubation times for 2-Cys Prx), excess removed
[5] = biological target: glutathionylated pea mitochondrial Prx IIF (Cys59-SG, Cys84-SG) (Pisum sativum (pea)); experiment: SEC; Superdex-200 HR 10/30, 50 mM Tris-HCl pH 7.5, 150 mM NaCl; DTT-reduced protein incubated with 5 mM GSSG at 4 C for 24 h, excess removed
[6] = biological target: mitochondrial Prx IIF from pea (Pisum sativum), recombinant, not glutathionylated (Pisum sativum (pea)); experiment: SEC; Superdex-200 HR 10/30, room temperature, 50 mM Tris-HCl pH 7.5, 150 mM NaCl; protein (50 uM) reduced with 10 mM DTT for 30 min, excess DTT removed
[7] = biological target: mitochondrial Prx IIF from pea (Pisum sativum), recombinant, not glutathionylated (Pisum sativum (pea)); experiment: SEC; Superdex-200 HR 10/30, room temperature, 50 mM Tris-HCl pH 7.5, 150 mM NaCl, 0.5 mL/min; untreated (native) protein

SNP-treated (S-nitrosylated) pea chloroplast 2-Cys Prx (enzyme)
stoichiometry N [1]: 10

chloroplast 2-Cys Prx from pea (Pisum sativum), recombinant, not glutathionylated (enzyme)
stoichiometry N [2]: 10
stoichiometry N [3]: 2

glutathionylated pea mitochondrial Prx IIF (Cys59-SG, Cys84-SG) (enzyme)
stoichiometry N [4]: 2
stoichiometry N [5]: 2

mitochondrial Prx IIF from pea (Pisum sativum), recombinant, not glutathionylated (enzyme)
stoichiometry N [6]: 2
stoichiometry N [7]: 6

From PMC5283164
